Reference: article PMC4699771

System: T1, YhaJ (Escherichia coli EHEC O157:H7? EDL933 (amplified from TUV93-0 genomic DNA)), ORF:62819c23
T1 sequence: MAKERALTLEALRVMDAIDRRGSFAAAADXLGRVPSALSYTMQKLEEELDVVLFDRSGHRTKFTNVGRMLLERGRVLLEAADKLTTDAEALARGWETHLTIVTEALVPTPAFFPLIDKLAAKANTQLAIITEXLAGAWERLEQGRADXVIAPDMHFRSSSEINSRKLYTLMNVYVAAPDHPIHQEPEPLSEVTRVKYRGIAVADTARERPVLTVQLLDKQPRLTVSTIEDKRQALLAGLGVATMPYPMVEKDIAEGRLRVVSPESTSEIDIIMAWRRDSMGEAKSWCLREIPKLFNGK
Test: EMSA
Settings: EMSA: Roche DIG Gel Shift Kit 2nd Gen (buffer, salt and pH not stated), 30 min at 30 C, YhaJ 0-1 uM, DIG probe diluted to 0.4 ng/ul, 6% DNA retardation gel

| Sequence | binding |
| --- | --- |
| CCTGCTGTAGAACTGCAATTTGCTCTATAAGCTGAATGTATGGACTTGTTGTATGTGAATTATTTTCCATATTCATAATAAATAATCTCCGCATGCTTTAATATTTTAAGCTATTAGCGACCTTATCAGGAAGGACCAACAATTAATCAAATGATATAAATTATGTGAGATAACGTTTATCTATCAAATTAGGACACATCTATTTCATCAAACAACCACCTTAAAATG (double strand) [LEE1 P2 promoter probe] | no binding |
| TCGCTCAATATTTTGTAGGGCTTATTATTTTTTTCCGAGCCGCATCAAGGCGATATGCGGTCTACGTTTTTGCAGGCGAGTTATTAGAATAAAGAAATGATACGCGCGAGGTCAGAGAAAATCTTCACAATCAAGACTTTGAAATAACGGAGATGGATAAGAATTTTCTACTAAATTAATCGCAAGAGAATATTCACTCTCTATTTGCGGCAGATCACAAAAAAAAGGTGCACATTTGTGCACCCAAGGATGAAAGCTGACAGCAATGTCAGCCGCAGACCACTTTAATGGCCAGTCCGC (double strand) [pyhaO promoter probe] | binds |
